{"source": "patent US20180263259A1", "target": "ground chicken feathers (keratin)"}
{"substance": "FoodPro® PXT (enzyme)", "values": [{"measurement": "Soluble dry matter yield (%)", "value": 48.3, "unit": "%"}]}
